From US20230331848A1 (BIOSION, published 2023) come the findings set out here.

Read-outs that look alike come from different tables or passages of the source.

Experiment [1] deals with T1, in house made human PD-1-Fc protein (human, biotin-labeled (sites not given)).
T1 construct: also called biotin-labeled human PD-1-Fc
The experiment can be described thus: blocking FACS: biotin human PD-1-Fc + antibody on GS-C2/PD-L1 cells (competitor: cell-surface human PD-L1). As for the experimental part:
(§1) GS-C2/PDL1 cells were harvested from cell culture flasks at the log phase, washed twice and re-suspended in PBS containing 2% v/v Fetal Bovine Serum (FACS buffer). GS-C2/PD-L1 cells, 0.6×10⁵ cells per welt, were incubated in 96 well-plates with 100 the antibody/PD1-Fc mixture for 40 minutes at 4° C. Cells were washed twice with FACS buffer, added with 100 R-Phycoerythrin Streptavidin (1:500 dilution in FACS buffer, Cat#:016-110-084, Jackson Immunoresearch), and incubated for 40 minutes at 4° C. in dark. Cells were washed twice and re-suspended in FACS buffer. Fluorescence was measured using a Becton Dickinson FACS Canto II-HTS equipment. Data was analyzed using Graphpad Prism software and IC₅₀ values were reported.

Experiment [2] concerns the target T2, cynomolgus PD-1-his protein (Cat#:PD1-05223, Acro biosystems Inc.) (cynomolgus, UniProt B0LAJ3 25-170).
T2 construct: Bought protein used in Biacore and indirect ELISA; also called monkey PD-1; Cyno PD-1
The experiment can be described thus: indirect ELISA on coated cynomolgus PD-1-his. On the technique in general: An ELISA detects its analyte on a solid surface through an enzyme-linked reagent.

The target of experiment [3] is T2, cynomolgus PD-1-his protein …. The experiment can be described thus: SPR (Biacore T200), antibody captured on Protein G chip, PD-1-his in flow, 1:1 fit.
The target in experiment [4] is T1, in house made human PD-1-Fc protein. The experiment can be described thus: cell-based blocking FACS: antibody pre-mixed with biotin-labeled human PD-1-Fc, added to GS-C2/PD-L1 cells expressing human PD-L1 (blocked ligand); unit from the axis 'Con of mAb, nM.'. As for the experimental part:
as §1

In experiment [5] the target is T2, cynomolgus PD-1-his protein …. As to the kind of experiment: indirect ELISA on coated cynomolgus PD-1-his; unit from the axis 'Con of mAb, nM.'. How it is done: (§2) Briefly, 96-well micro plates were coated with 100 μl 2 μg/ml mouse PD-1-his (Cat#:50124-M08H, Sino Biological Inc) or 2 μg,/ml cynomolgus PD-1-his (Cat#:PD1-05223, Acro biosystems Inc.) in carbonate/bicarbonate buffer (pH 9.6) for 2 hours at 37° C. Plates were washed once with wash buffer (PBST, PBS+0.05% Tween-20) and then blocked with 200 μl blocking buffer (5% w/v non-fatty milk in PBST) for 2 hours at 37° C. […] ELISA plates were washed 4 times and incubated with Peroxidase AffiniPure goat anti-mouse IgG, Fcγ Fragment Specific (1:5000 dilution in PBST buffer, Cat#:115-035-071, Jackson ImmunoResearch Laboratories, Inc., 100 μl/well) or Peroxidase AffiniPure F(ab′)₂ Fragment Goat Anti-Human IgG, Fcγ fragment specific (Cat#:109-036-098, Jackson ImmunoResearch, for the controls) for 40 minutes at 37° C. After a final wash, plates were incubated with 100 μl/well TMB (Cat#:TMB-S-002, innoreagents) at room temperature. The reaction was stopped 3-10 minutes later with 50 μl/well 1M H₂SO₄, and the absorbance was read on a microplate reader using dual wavelength mode with 450 nm for TMB and 630 nm as the reference wavelength. Then the OD (450-630) values were plotted against antibody concentrations. Data was analyzed using GraphPad Prism software and EC₅₀ values were reported.

Experiment [6] deals with T1, in house made human PD-1-Fc protein. The experiment can be described thus: competitive ELISA: antibody pre-mixed with biotin-labeled human PD-1-Fc, added to coated human PD-L1-Fc (blocked ligand); unit from the axis 'Con of mAb, nM.'. How it is done:
(§3) The activities of the anti-PD1 antibodies of the disclosure to block PD-L1-PD1 binding were measured in a competitive ELISA.
(§4) Briefly, 100 μl human PD-L1-Fc protein (prepared in-house with SEQ ID NO: 28) at 2 μg/mL in carbonate/bicarbonate buffer (pH 9.6) was coated on 96-well micro plates overnight at 4° C., Plates were washed with wash buffer (PBS+0.05% w/v Tween-20, PBST), and blocked with 5% w/v non-fatty milk in PBST for 2 hours at 37° C. […] After incubation at 37° C. for 40 minutes, plates were washed using wash buffer. […] Plates were washed again using wash buffer. Finally, TMB was added and the reaction was stopped using 1M H₂SO₄. The absorbance was read on a microplate reader using dual wavelength mode with 450 nm for TMB and 630 nm as the reference wavelength, then the OD (450-630) values were plotted against antibody concentrations. Data was analyzed using Graphpad Prism software and IC₅₀ values were reported.

The target is the same in experiment [7]. The experiment can be described thus: capture ELISA: antibody captured on anti-human IgG coated plate, biotin-labeled human PD-1-Fc detected with streptavidin-HRP; unit from the axis 'Con of mAb, nM.'.
For experiment [8] the target is unchanged. As to the kind of experiment: competitive ELISA: antibody pre-mixed with biotin-labeled human PD-1-Fc, added to coated human PD-L1-Fc (blocked ligand); unit from the axis 'Con of mAb, nM.'. How it is done: as §3, §4
The source holds these as a separate data set.

For experiment [9], the target named is T2, cynomolgus PD-1-his protein …. As to the kind of experiment: indirect ELISA on coated cynomolgus PD-1-his; unit from the axis 'Con of mAb, nM.'. How it is done: as §2
The source holds these as a separate data set.

Experiment [10] deals with T1, in house made human PD-1-Fc protein. The experiment can be described thus: competitive ELISA: soluble Pembrolizumab pre-mixed with biotin-labeled human PD-1-Fc, added to coated Pembrolizumab (self-competition); unit from the axis 'Con of mAb, nM.'.
Experiment [11] has the same target. Described as above. The source holds these as a separate data set.
For experiment [12] the target is unchanged. As to the kind of experiment: capture ELISA: antibody captured on anti-human IgG coated plate, biotin-labeled human PD-1-Fc detected with streptavidin-HRP; unit from the axis 'Con of mAb, nM.'. This is another data set of the same source.
Experiment [13] deals with T3, human PD-1-his protein (Cat#:PD1-H5221, Acro biosystems Inc.) (human, UniProt Q15116 25-167).
T3 construct: not shown: his tag
As to the kind of experiment: BLI (Octet RED96), cell supernatant antibody captured on AHC sensor, human PD-1-his in solution. How it is done:
Briefly, AHC biosensors (anti-human IgG Fe capture, from ForteBio) were presoaked with 10 mM glycine (pH 1.5) for 3 seconds, and then dipped in a well with running buffer (0.5% w/v BSA in PBST) for 3 seconds, the soaking and dipping steps were repeated for three times. […] A new baseline was run for 100 seconds in another well with running buffer. Then the sensors were dipped in a well with serially diluted human PD-1-his protein (Cat#:PD1-H5221, Acro biosystems Inc., starting at 100 nM with a two-fold serial dilution) in running buffer for 120 seconds, and then immersed in a baseline well for […]. Finally, sensors were presoaked with 10 mM glycine (pH 1.5) for 30 seconds, and then were dipped in a well with running buffer for 30 seconds. The association and dissociation curves were fit to a 1:1 Langmuir binding model using ForteBio Data Analysis 8.1 evaluation software.
On the technique in general: In BLI a coated tip is dipped into the sample, and binding shifts an interference pattern.

B1: Nivolumab (antibody, V domains shown)
VH: QVQLVESGGGVVQPGRSLRLDCKASGITFSNSGMHWVRQAPGKGLEWVAVIWYDGSKRYYADSVKGRFTISRDNSKNTLFLQMNSLRAEDTAVYYCATNDDYWGQGTLVTVSS
VL: EIVLTQSPATLSLSPGERATLSCRASQSVSSYLAWYQQKPGQAPRLLIYDASNRATGIPARFSGSGSGTDFTLTISSLEPEDFAVYYCQQSSNWPRTFGQGTKVEIK
As a reminder, the IC50 is the concentration needed to halve the response being measured. As usually defined, the EC50 is the concentration at which the effect is half-maximal. One may read the Kd as the free concentration of one partner at which half of the binding sites on the other are occupied at equilibrium, for simple one-to-one binding. Low values mean tighter binding, high ones weaker binding. With B1, the half-maximal inhibitory concentration (IC50) in experiment [1] is 0.52 nM. The same molecule registered an EC50 in experiment [2] of 0.23 nM. In experiment [3], this molecule came in with a Kd of 5.64 nM.

B2: Pembrolizumab (antibody, V domains shown)
VH: QVQLVQSGVEVKKPGASVKVSCKASGYTFTNYYMYWVRQAPGQGLEWMGGINPSNGGTNFNEKFKNRVTLTTDSSTTTAYMELKSLQFDDTAVYYCARRDYRFDMGFDYWGQGTTVTVSS
VL: EIVLTQSPATLSLSPGERATLSCRASKGVSTSGYSYLHWYQQKPGQAPRLLIYLASYLESGVPARFSGSGSGTDFTLTISSLEPEDFAVYYCQHSRDLPLTFGGGTKVEIKR
As to B2, the IC50 in [4] was 0.32 nM; in experiment [1], 0.49 nM; in experiment [6], 0.37 nM; in experiment [8], 0.345 nM; in experiment [10], 0.0759 nM; in [11], 0.0735 nM. Further, the concentration for a half-maximal effect (EC50) in [5] worked out at 0.0957 nM; in experiment [2] it was 0.2 nM; in experiment [7], 0.118 nM; in experiment [9] it was 0.093 nM; in experiment [12], 0.113 nM.

B3: humanized antibody huE1A9C8A7-V3 (antibody, human IgG4 S228P, kappa, V domains shown)
VH: QVQLVQSGAEVVKPGASVKISCKASGYTFSDYVMHWVRQAPGQSLEWIGVISTYHIPAVYNQKFKGKATMTVDKSTSTVYLELSSLRSEDTAVYYCAREVYGDSYYFDVWGQGTTVTVSS
VL: DIVMTQTPLSLPVTPGEPASISCRSSQSIVHSNGNTYLEWYLQKPGQSPQLLIYKVSNRFSGVPDRFSGSGSGTDFTLKISRVEAEDVGVYYCFQGSHVPYTFGGGTKVEIKR
notes: Human IgG4/kappa
Regarding B3, in experiment [13], the binding result is given as “no binding (tested: antigen series starting at 100 nM)”.
